{
  "source": "patent US7432061B2",
  "about": "“Assays for measuring matrix metalloproteinase activities” (BioZyme, Inc., priority 2002, dated 2008)",
  "type_in_all_cases": "biochemical",
  "key": {"collagenase 1": {"biological_target": "T1, collagenase 1 (Homo sapiens, UniProt P03956)", "T1 sequence (P03956 100-469)": "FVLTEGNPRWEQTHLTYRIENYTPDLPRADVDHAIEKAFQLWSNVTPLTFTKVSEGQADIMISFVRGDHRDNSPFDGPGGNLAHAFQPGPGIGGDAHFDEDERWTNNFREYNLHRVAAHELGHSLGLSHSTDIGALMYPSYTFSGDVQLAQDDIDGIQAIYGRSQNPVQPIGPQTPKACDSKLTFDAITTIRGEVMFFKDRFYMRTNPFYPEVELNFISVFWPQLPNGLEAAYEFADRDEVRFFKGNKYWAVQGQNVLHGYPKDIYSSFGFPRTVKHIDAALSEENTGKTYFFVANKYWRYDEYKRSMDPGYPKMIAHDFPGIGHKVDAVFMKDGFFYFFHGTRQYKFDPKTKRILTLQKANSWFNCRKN", "assay": "Cleavage of biglycan and type IV collagen by MMPs (gel)", "conditions": "equal concentration of enzyme as col-3", "method": "(§1) Reactions were carried out on a small scale to optimize the enzyme to full length protein ratios. For biglycan, optimum results were obtained with a ratio of 1:100 (20-40 nM col-3 and 4.3 μM biglycan in a 10 μl reaction). For type IV collagen, best results were found with a ratio of 1:50 (28 nM col-3 and 2 μM type IV collagen). For comparison with the other MMPs, an equal concentration of enzyme was used."}, "gelatinase A": {"biological_target": "T2, gelatinase A (Homo sapiens, UniProt P08253)", "T2 sequence (P08253 110-660)": "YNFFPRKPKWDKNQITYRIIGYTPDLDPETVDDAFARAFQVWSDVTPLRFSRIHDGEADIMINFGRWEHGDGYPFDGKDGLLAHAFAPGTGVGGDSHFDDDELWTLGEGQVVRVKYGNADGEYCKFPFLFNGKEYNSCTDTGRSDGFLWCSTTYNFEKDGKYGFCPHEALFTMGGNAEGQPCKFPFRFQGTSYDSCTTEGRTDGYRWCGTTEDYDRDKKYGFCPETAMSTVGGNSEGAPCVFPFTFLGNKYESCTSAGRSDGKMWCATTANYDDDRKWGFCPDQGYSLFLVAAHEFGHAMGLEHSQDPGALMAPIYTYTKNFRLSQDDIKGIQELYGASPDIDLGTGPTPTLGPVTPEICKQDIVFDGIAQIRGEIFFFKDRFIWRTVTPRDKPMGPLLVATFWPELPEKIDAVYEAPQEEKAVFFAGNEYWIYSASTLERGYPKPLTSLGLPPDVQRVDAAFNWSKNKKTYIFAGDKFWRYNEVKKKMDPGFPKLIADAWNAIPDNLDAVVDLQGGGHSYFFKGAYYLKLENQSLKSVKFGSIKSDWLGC", "assay": "Cleavage of biglycan and type IV collagen by MMPs (gel)", "conditions": "earlier experiment", "method": "as §1"}, "gelatinase B": {"biological_target": "gelatinase B (Homo sapiens, UniProt P14780)", "sequence (P14780 94-707)": "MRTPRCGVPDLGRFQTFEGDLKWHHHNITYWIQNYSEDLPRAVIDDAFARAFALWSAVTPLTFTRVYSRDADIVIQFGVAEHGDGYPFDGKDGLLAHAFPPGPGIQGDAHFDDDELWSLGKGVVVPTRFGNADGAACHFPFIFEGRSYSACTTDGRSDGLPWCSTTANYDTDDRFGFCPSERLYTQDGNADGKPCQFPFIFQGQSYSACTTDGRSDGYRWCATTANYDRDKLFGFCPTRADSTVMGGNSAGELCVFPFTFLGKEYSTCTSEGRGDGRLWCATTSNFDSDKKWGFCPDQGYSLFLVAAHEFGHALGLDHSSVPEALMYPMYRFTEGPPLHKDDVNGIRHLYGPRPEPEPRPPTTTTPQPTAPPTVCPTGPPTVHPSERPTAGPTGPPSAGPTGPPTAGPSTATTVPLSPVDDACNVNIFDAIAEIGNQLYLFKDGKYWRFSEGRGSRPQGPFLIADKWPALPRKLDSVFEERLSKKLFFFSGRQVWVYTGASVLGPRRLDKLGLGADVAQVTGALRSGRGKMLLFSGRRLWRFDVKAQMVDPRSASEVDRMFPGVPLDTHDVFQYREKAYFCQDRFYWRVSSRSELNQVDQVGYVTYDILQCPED", "assay": "Cleavage of biglycan and type IV collagen by MMPs (gel)", "conditions": "equal concentration of enzyme as col-3", "method": "as §1"}, "collagenase 3 [1]": {"biological_target": "T3, collagenase 3 (Homo sapiens, UniProt P45452)", "assay": "kcat/Km of fluorescence peptide substrates", "conditions": "for Col-3 Specificity Constant: fluorescence substrate, + Gel = PRIONEX GELATIN 1:250"}, "stromelysin 1 [2]": {"biological_target": "T4, stromelysin 1 (Homo sapiens, UniProt P08254)", "T4 sequence (P08254 100-477)": "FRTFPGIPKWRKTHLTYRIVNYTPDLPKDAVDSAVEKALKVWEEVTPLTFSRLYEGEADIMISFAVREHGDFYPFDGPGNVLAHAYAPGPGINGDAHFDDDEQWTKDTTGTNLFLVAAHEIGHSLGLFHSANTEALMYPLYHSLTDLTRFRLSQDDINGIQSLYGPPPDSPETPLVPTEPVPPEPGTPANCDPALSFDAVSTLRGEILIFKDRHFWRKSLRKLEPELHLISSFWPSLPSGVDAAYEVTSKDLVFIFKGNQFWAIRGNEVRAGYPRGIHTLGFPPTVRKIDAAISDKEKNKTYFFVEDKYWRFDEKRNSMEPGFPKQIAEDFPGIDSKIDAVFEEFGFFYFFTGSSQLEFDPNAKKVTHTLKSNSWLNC", "assay": "kcat/Km of fluorescence peptide substrates", "conditions": "for reduction of substrate selectivity for stromelysin 1 relative to FlSb1: fluorescence substrates; for Strom1 Selectivity v Col-3: fluorescence substrate, + Gel = PRIONEX GELATIN 1:250"}, "collagenase 3 [3]": {"biological_target": "T3, collagenase 3", "assay": "Inhibition with type II collagen, FlSub3 cleavage", "conditions": "Time Period 0.85 to 2.10 Hours; 20 uM FlSub3 with bovine type II collagen", "method": "In a 96 well plate, collagenase 3 (0.013 nM), collagenase 1 (1.25 nM), stromelysin 1 (0.8 nM), gelatinase A (0.025 nM), or gelatinase B (0.008 nM) were reacted with 20 uM FlSub3 in standard assay buffer in the presence of varying concentrations of bovine type II collagen (0.18-44 ug/ml). The type II collagen, a 1 mg/ml stock in 0.5M acetic acid, was transferred into assay buffer by passing the material through a biospin P6 column from Amersham. The reaction was initiated by addition of substrate to enzyme containing either buffer or an appropriate amount of type II collagen. Data points were taken every 15 min over a period of 15 hours using an excitation and emission wavelength of 350 and 485 nm respectively. The usable data (1-6 hours), was taken and the percent inhibition by type II collagen was calculated for each enzyme and plotted as a function of inhibitor concentration and time in the assay. It should be noted that the percent inhibition varies with time as the bovine substrate is consumed during the reaction course."}, "stromelysin 1 [4]": {"biological_target": "T4, stromelysin 1", "assay": "Cleavage of biglycan and type IV collagen by MMPs (gel)", "conditions": "equal concentration of enzyme as col-3", "method": "as §1"}},
  "note": "Primed or numbered codes have the meaning given here. The star is where a group is joined. Dabcyl″ = Dabcyl quencher at the N-terminus, CN(C)c1ccc(/N=N/c2ccc(C(=O)*)cc2)cc1; Flu = fluorescein label on the cysteine side chain; Dabcyl′ = CN(C)c1ccc(/N=N/c2ccc(C(=O)*)cc2)cc1; fluorescein = fluorescein label",
  "data": [
    {"molecule": "type IV collagen: full length protein digested with collagenase 3 and other MMPs", "values": [
      {"measurement": "cleavage of full length protein by collagenase 1", "setting": "collagenase 1", "result": "processed"},
      {"measurement": "cleavage of full length protein by gelatinase A", "setting": "gelatinase A", "result": "No detectable cleavage"},
      {"measurement": "cleavage of full length protein by gelatinase B", "setting": "gelatinase B", "result": "processed"}
    ]},
    {"molecule": "Dab-SYPSGIHLC(Flu)LQR-NH2 ({Dabcyl″}-SYPSGIHLC(Flu)LQR-NH2) [FlSb2, fluorescence substrate based on the sulfate transporter]", "values": [
      {"measurement": "less sensitive for collagenase 3 compared to the consensus substrate", "setting": "collagenase 3 [1]; compared to FlSb1", "result": 100, "unit": "fold"},
      {"measurement": "selectivity compared to FlSb1", "setting": "collagenase 3 [1]; kcat/Km against the five MMPs", "result": "less selective"}
    ]},
    {"molecule": "Dabcyl-GPVNLHGC(Flu)-NH2 ({Dabcyl″}-GPVNLHGC(Flu)-NH2) [FISb3]", "values": [
      {"measurement": "Col-3 Specificity Constant", "setting": "collagenase 3 [1]", "result": "4.21E+05 1/sM"},
      {"measurement": "reduction of substrate selectivity for stromelysin 1 relative to FlSb1", "setting": "stromelysin 1 [2]", "result": "approximately 10 fold"},
      {"measurement": "Col-3 Specificity Constant", "setting": "collagenase 3 [3]", "result": "1.11E+06 1/sM"}
    ]},
    {"molecule": "Dabcyl-GPLGMRGC(Fluorescein)-NH2 ({Dabcyl′}-GPLGMRGC(fluorescein)-NH2) [FISb1]", "values": [
      {"measurement": "Strom1 Selectivity v Col-3", "setting": "stromelysin 1 [2]", "result": 707.5, "unit": "unitless"},
      {"measurement": "Strom1 Selectivity v Col-3", "setting": "stromelysin 1 [2]; listed as Fluorescence Substrate 1", "result": 3665, "unit": "unitless"}
    ]},
    {"molecule": "Dabcyl-GPHPFRGC(Flu)-NH2 ({Dabcyl″}-GPHPFRGC(Flu)-NH2) [FISb4]", "values": [
      {"measurement": "Col-3 Specificity Constant", "setting": "collagenase 3 [1]", "result": "3.27E+04 1/sM"},
      {"measurement": "reduction of substrate selectivity for stromelysin 1 relative to FlSb1", "setting": "stromelysin 1 [2]", "result": "approximately 10 fold"}
    ]},
    {"molecule": "biglycan: proteoglycan, full length protein digested with collagenase 3 and other MMPs (protein, UniProt P21810 38-368, looked up) Biglycan: DEEASGADTSGVLDPDSVTPTYSAMCPFGCHCHLRVVQCSDLGLKSVPKEISPDTTLLDLQNNDISELRKDDFKGLQHLYALVLVNNKISKIHEKAFSPLRKLQKLYISKNHLVEIPPNLPSSLVELRIHDNRIRKVPKGVFSGLRNMNCIEMGGNPLENSGFEPGAFDGLKLNYLRISEAKLTGIPKDLPETLNELHLDHNKIQAIELEDLLRYSKLYRLGLGHNQIRMIENGSLSFLPTLRELHLDNNKLARVPSGLPDLKLLQVVYLHSNNITKVGVNDFCPMGFGVKRAYYNGISLFNNPVPYWEVQPATFRCVTDRLAIQFGNYKK", "values": [
      {"measurement": "cleavage of full length protein by gelatinase B", "setting": "gelatinase B", "result": "able to degrade"},
      {"measurement": "cleavage of full length protein by stromelysin 1", "setting": "stromelysin 1 [4]", "result": "able to degrade"}
    ]}
  ]
}
